This is an account of results in US20020192789A1 (published 2002).

In one experiment the target is T1, streptavidin (UniProt P22629 37-163, limits assumed).
T1 construct: Commercial immobilized streptavidin; the construct is not described; also called Sv; immobilized streptavidin
Kind of experiment: phage ELISA, phage bound to immobilized streptavidin.

The target of experiment [1] is recombinant light chain enterokinase (Novagen, Madison, Wis.) (UniProt P98072 801-1035). Kind of experiment: cell-based or functional assay.
recombinant light chain enterokinase (Novagen, Madison, Wis.), sequence (P98072 801-1035 limits assumed): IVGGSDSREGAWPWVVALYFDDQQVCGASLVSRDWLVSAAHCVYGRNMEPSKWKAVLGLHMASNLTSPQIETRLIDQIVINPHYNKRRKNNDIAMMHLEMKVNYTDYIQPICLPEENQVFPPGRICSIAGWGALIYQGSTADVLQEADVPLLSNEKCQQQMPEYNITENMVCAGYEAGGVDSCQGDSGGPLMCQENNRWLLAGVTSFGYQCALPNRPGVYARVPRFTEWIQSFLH

T1 sequence (P22629 37-163 limits assumed): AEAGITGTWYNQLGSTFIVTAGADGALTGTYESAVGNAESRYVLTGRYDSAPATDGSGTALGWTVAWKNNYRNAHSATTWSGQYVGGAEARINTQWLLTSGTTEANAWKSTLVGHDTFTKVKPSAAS

B1: phage isolate 5-F08 display polypeptide (unselected control) (other)
chain: AEWHPQFSSPSASRPSEGPCHPQFPRCYIENLDEFRPGGSGGAVLSNVMHSDDWTGAQSDGGGSTEHAEGGSADPSYIEGRIVGSA
notes: not shown: M13 phage gene III protein; the display polypeptide is fused to its N-terminus
Consider B1, for which the binding result in the experiment with streptavidin is “binds”.

B2: phage isolate 5-A01 display polypeptide (other)
chain: AEWHPQFSSPSASRPSEGPCHPQFPRCYIENLDEFRPGGSGGDRMYQLDKTGFMIGAQSDGGGSTEHAEGGSADPSYIEGRIVGSA
notes: as for B1
Consider B2, for which the binding result in the experiment with streptavidin is recorded as “binds”.

B3: phage isolate 5-A08 display polypeptide (other)
chain: AEWHPQFSSPSASRPSEGPCHPQFPRCYIENLDEFRPGGSGGDMFSEEDRMMQMQGAQSDGGGSTEHAEGGSADPSYIEGRIVGSA
notes: The printed 13-mer is used instead; also called 05-A08; not shown: M13 phage gene III protein; the display polypeptide is fused to its N-terminus
As to B3, the binding result in the experiment with streptavidin was “binds”.

B4: GDDDDKIYV (positive control test peptide) (peptide)
peptide: GDDDDKIYV
For the molecule B4, the “test peptide rate (Va), in competition with reference peptide GDDDDK-βNA” value (shortened to “test peptide rate (Va), in competition”) in experiment [1] worked out at 0.028.

B5: GNYTDRMFI (peptide)
peptide: GNYTDRMFI
B5: the “test peptide rate (Va), in competition” value in experiment [1] was found to be 0.038.

B6: phage isolate 5-H11 display polypeptide (other)
chain: AEWHPQFSSPSASRPSEGPCHPQFPRCYIENLDEFRPGGSGGMGDDDDKIYVYKTGAQSDGGGSTEHAEGGSADPSYIEGRIVGSA
notes: The printed 13-mer is used instead; also called 05-H11; not shown: M13 phage gene III protein; the display polypeptide is fused to its N-terminus
In the case of B6, the binding result in the experiment with streptavidin was “binds”.

B7: phage isolate 5-A11 display polypeptide (other)
chain: AEWHPQFSSPSASRPSEGPCHPQFPRCYIENLDEFRPGGSGGDLNDVYSERMAMWGAQSDGGGSTEHAEGGSADPSYIEGRIVGSA
notes: The printed 13-mer is used instead; also called 05-A11; not shown: M13 phage gene III protein; the display polypeptide is fused to its N-terminus
As to B7, the binding result in the experiment with streptavidin was “binds”.

B8: phage isolate 5-B05 display polypeptide (other)
chain: AEWHPQFSSPSASRPSEGPCHPQFPRCYIENLDEFRPGGSGGSLDDDRTVSPKFWGAQSDGGGSTEHAEGGSADPSYIEGRIVGSA
notes: The printed 13-mer is used instead; also called 05-B05; not shown: M13 phage gene III protein; the display polypeptide is fused to its N-terminus
With B8, the binding result with streptavidin is recorded as “binds”.

B9: DINDDRSLF (peptide)
peptide: DINDDRSLF
For the molecule B9, in experiment [1], the “test peptide rate (Va), in competition” value was 0.18.
